According to paper doi:10.1101/2022.11.04.515170:

Experiments:
GFP-SNX4 = GFP-SNX4 (UniProt O95219); test: co-IP
GFP-SNX4, O95219 = target: T1, GFP-SNX4, O95219; test: co-IP; settings: remark: other sources report otherwise
T1 chain: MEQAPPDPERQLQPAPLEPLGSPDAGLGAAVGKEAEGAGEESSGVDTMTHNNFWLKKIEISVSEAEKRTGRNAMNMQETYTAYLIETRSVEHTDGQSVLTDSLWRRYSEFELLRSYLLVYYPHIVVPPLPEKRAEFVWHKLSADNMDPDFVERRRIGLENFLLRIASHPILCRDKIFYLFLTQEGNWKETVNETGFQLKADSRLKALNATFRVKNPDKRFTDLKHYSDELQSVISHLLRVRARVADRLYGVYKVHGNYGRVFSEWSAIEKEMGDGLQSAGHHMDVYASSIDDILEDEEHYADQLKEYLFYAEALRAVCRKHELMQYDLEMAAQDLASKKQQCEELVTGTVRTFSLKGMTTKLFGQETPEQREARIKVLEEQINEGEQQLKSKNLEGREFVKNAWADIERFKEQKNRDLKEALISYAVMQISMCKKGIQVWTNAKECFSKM

HA-SNX32 A226E (from UniProt Q86XE0 1-403) (natural protein)
ratio of HA to GFP band intensity (GFP-SNX4): 0.65

B1: HA-SNX32 FL, Q86XE0 1-403 (natural protein)
chain: METYAEVGKEGKPSCASVDLQGDSSLQVEISDAVSERDKVKFTVQTKSCLPHFAQTEFSVVRQHEEFIWLHDAYVENEEYAGLIIPPAPPRPDFEASREKLQKLGEGDSSVTREEFAKMKQELEAEYLAIFKKTVAMHEVFLQRLAAHPTLRRDHNFFVFLEYGQDLSVRGKNRKELLGGFLRNIVKSADEALITGMSGLKEVDDFFEHERTFLLEYHTRIRDACLRADRVMRAHKCLADDYIPISAALSSLGTQEVNQLRTSFLKLAELFERLRKLEGRVASDEDLKLSDMLRYYMRDSQAAKDLLYRRLRALADYENANKALDKARTRNREVRPAESHQQLCCQRFERLSDSAKQELMDFKSRRVSSFRKNLIELAELELKHAKASTLILRNTLVALKGEP
ratio of HA to GFP band intensity (GFP-SNX4, O95219): 0.92
